Experimental data as given in article PMC9407234.

Tests used:
XPA M32-4 = XPA M32-4 (UniProt P23025 1-273, R30E;K31E;R32E;R34E); assay: MST
XPA M32-4/70-2 = XPA M32-4/70-2 (UniProt P23025 1-273, R30E;K31E;R32E;R34E;E106K;F112A); assay: MST
Chain of XPA M32-4/70-2 (P23025 whole entry R30E/K31E/R32E/R34E/E106K/F112A): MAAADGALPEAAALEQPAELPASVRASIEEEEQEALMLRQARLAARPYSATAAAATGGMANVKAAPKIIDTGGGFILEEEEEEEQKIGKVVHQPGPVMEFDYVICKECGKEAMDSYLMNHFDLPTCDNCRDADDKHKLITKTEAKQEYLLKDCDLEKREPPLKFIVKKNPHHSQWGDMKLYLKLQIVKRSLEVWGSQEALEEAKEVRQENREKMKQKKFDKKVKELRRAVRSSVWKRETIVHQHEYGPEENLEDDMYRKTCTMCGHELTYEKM

Chain of XPA M32-4 (P23025 whole entry R30E/K31E/R32E/R34E): as the sequence (P23025 whole entry R30E/K31E/R32E/R34E/E106K/F112A) above, with K106E, A112F counted along it

B1: 4-nt hairpin NER junction mimic (structured_DNA)
DNA: TTTTGCGGCCGCTTTTGCGGCCGC
XPA M32-4
  Kd: 8.4 ± 2.3 µM
XPA M32-4/70-2
  Kd: 10 ± 3 µM
